This passage reports binding signal (% protein in complex fraction) and IC50 results from US20210395746, “COMPOSITIONS FOR […] TRANSCRIPTIONAL FEEDBACK CIRCUIT DISRUPTION AND USES […]” (The J. David Gladstone Institutes, a testamentary trust …, published 2021).

Data set [1] has as its target T1, IE86 (IE2) C-terminal fragment (Human cytomegalovirus) (UniProt Q6SWP7).
T1 sequence: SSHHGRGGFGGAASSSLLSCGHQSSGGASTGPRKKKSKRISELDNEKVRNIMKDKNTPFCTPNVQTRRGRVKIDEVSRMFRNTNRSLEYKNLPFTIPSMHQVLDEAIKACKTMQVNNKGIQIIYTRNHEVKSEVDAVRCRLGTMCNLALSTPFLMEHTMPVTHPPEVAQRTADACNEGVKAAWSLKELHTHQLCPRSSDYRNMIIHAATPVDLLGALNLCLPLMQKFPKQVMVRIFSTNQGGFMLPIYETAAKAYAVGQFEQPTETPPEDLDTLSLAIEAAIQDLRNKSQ
Conditions: FPLC Superose 6; 20 mM HEPES pH 7.4, 250 mM NaCl, 1 mM DTT; most efficient length.

The next data set has as its target T2, IE175 (ICP4) (Herpes simplex virus type 1, UniProt P08392 P08392:1-1298).
T2 sequence: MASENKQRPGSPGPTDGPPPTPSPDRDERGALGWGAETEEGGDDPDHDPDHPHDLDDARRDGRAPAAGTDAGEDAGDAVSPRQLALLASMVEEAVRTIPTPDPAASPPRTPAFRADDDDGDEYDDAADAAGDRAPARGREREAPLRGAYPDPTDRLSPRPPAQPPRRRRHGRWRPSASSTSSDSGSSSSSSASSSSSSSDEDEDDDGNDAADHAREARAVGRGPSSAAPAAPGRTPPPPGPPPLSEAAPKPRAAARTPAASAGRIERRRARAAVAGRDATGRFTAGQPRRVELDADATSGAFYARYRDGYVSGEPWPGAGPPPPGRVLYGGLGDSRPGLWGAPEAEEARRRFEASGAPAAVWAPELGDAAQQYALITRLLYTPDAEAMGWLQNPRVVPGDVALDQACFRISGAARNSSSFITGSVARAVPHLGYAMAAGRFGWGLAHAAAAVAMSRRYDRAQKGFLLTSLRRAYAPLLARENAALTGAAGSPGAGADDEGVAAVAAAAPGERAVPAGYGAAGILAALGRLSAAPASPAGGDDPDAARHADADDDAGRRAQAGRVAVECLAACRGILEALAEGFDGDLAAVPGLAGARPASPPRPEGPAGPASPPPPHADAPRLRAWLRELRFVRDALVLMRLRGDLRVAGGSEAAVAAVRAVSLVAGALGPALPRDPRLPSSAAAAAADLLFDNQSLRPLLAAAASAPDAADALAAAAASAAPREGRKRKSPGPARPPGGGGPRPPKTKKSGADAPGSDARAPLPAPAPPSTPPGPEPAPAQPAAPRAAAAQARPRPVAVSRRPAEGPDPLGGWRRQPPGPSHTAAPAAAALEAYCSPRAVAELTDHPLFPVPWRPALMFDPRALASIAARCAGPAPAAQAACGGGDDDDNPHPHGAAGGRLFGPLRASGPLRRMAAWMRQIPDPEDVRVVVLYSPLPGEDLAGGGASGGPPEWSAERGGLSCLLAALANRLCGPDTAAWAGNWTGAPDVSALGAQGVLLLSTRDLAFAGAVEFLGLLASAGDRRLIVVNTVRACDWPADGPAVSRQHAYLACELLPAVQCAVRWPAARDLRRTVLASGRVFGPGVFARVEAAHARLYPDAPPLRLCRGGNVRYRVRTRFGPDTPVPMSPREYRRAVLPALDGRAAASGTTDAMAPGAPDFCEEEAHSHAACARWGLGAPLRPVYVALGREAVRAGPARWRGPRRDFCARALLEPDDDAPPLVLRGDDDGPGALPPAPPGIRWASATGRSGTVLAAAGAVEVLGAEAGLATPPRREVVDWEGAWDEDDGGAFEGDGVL
Nature of the data set: cell_activity; HSV-1 C-DOT dose-response in 96-well format; indirect, decoy effect. Conditions: tags: YFP fusion, strain 17syn+; chain copies: 2.

In data set [2] the target is T3, IE86 (IE2) full-length, minimal feedback circuit or virus-encoded (Human cytomegalovirus, UniProt P19893 P19893:1-580).
T3 sequence: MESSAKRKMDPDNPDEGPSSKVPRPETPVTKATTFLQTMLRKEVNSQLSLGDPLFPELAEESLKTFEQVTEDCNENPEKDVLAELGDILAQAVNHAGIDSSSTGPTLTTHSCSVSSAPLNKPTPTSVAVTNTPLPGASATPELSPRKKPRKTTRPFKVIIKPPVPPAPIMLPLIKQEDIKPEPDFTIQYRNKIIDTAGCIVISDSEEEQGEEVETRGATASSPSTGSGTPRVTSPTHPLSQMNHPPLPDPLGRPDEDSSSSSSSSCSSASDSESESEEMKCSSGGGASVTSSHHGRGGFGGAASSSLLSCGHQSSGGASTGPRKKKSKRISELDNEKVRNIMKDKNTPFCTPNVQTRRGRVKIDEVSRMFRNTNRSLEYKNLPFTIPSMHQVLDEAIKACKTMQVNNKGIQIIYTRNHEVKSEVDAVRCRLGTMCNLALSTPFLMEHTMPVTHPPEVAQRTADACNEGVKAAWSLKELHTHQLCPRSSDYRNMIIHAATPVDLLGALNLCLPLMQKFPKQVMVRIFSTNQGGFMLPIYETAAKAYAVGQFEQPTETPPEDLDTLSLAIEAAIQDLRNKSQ
Nature of the data set: cell_activity; CMV C-DOT dose-response in 96-well format; indirect, decoy effect. Conditions: tags: MIEP-IE86-IRES-GFP reporter or IE86-YFP virus; chain copies: 2.

“GACAGATCGTTTAGTGAACCGTACACGA (double strand) [28 bp crs DNA]” returned a binding signal (% protein in complex fraction) in data set [1] of 98.

B1: C-DOTH (dsDNA)
DNA 1: CCGAGGACGCCCCGATCGTCCACACGGAG
DNA 2: CTCCGTGTGGACGATCGGGGCGTCCTCGG
modifications: PS at bonds marked * CCG*AGGAC*GCCCCGATC*GTCCACACG*GAG / CTC*CGTGTGGAC*GATCGGGGC*GTCCT*CGG
With B1, in the data set with IE175 (ICP4), the IC50 (usually the concentration that gives 50% inhibition) is < 1 nM.

B2: C-DOTC (dsDNA)
DNA 1: GACAGATCGTTTAGTGAACCGTACACGA
DNA 2: TCGTGTACGGTTCACTAAACGATCTGTC
modifications: PS at bonds marked * G*ACAGATCGTT*TAGTGAACC*GTACACG*A / T*CGTGTAC*GGTTCACTA*AACGATCTGT*C
On to B2, for which the IC50 in data set [2] is < 1 nM.
